T1: Myo5 SH3 (MYO5_YEAST), Q04439
T1 chain: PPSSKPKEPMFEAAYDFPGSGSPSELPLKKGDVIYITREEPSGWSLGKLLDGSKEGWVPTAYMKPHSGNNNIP

T2: Boi1 SH3 (BOI1_YEAST), P38041
T2 chain: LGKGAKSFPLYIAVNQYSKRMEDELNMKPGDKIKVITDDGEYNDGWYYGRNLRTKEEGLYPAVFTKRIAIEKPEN

T3: Boi2 SH3 (BOI2_YEAST), P39969
T3 chain: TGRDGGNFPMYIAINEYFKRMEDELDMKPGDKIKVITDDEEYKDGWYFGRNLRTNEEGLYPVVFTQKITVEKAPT

T4: Rvs167 SH3 (RV167_YEAST), P39743
T4 chain: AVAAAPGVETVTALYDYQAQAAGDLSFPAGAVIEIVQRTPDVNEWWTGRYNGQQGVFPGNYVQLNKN

T5: Yhr016c SH3 (YSC84_YEAST), P32793
T5 chain: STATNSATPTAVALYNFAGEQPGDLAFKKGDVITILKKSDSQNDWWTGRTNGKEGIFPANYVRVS

T6: Yfr024 SH3 (LSB3_YEAST), P43603
T6 chain: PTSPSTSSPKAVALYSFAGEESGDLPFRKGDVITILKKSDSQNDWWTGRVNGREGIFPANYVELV

B1: YMR266W 737-750 (peptide)
chain: MDGIKELPEFPIKK
B2: YAR035W 1-14 (peptide)
chain: MPNLKRLPIPPLQD
B3: YDR091C 417-430 (peptide)
chain: MKPQKIAPKFPGTV
B4: YDR265W 311-324 (peptide)
chain: MSWSKERPESPLSR
B5: YJR066W 21-34 (peptide)
chain: MDMDRNVPLAPNLN
B6: YGL065C 457-470 (peptide)
chain: MAFIKILPNNPWPF
B7: YDR104C 798-811 (peptide)
chain: MKAYRANPPLPIDS
B8: YBR096W 107-120 (peptide)
chain: MLNSKHYPYIPVAN
B9: YOR346W 669-682 (peptide)
chain: MRRSKDAPIEPPKY
B10: YDR017C 929-942 (peptide)
chain: MDKFRIPPKSPNIE
B11: YDR098C 199-212 (peptide)
chain: MLFMKGSPSEPKSG
B12: YMR241W 242-255 (peptide)
chain: MQSKKEDPNRPKNL
B13: YDL148C 252-265 (peptide)
chain: MTQPKKNPMEPKTD
B14: YPL111W 171-184 (peptide)
chain: MGLNKDVPHSPESL

The values below come from PMC314469, “Protein Interaction Networks by Proteome Peptide Scanning” (PLoS Biology, 2004).

Sho1 SH3 (SHO1_YEAST), P40073, sequence (P40073 295-366): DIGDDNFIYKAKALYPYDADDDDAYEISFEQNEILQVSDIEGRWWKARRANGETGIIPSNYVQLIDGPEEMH

The target in the first test is T1, Myo5 SH3 (MYO5_YEAST), Q04439. In words: SPOT array.
For B1, the normalised SPOT signal, Boehringer light units (BLU); mean over the file's lines of this peptide was 138.
The same measure, in the same setting: with B2 the figure was 307; with B3, 416; with B4, 268.
On the same count and under the same terms, the figure for B5 is 91.4.
As for B6, the normalised SPOT signal, Boehringer light units (BLU); mean over the file's lines of this peptide was 59.9.
On the same count and under the same terms, the figure for B7 is 123; for B8 it is 171; for B9 it is 155.
Still for that read-out and setting: with B10 the figure was 222.
B11 yielded a normalised SPOT signal, Boehringer light units (BLU); mean over the file's lines of this peptide of 251.
Still for that read-out and setting: the figure for B12 is 154; for B13 it is 147.
Same read-out and setting: with B14 the figure was 99.4.

Another test addresses T2, Boi1 SH3 (BOI1_YEAST), P38041. In words: SPOT array.
B1 displayed a normalised SPOT signal, Boehringer light units (BLU); mean over the file's lines of this peptide of 25.9.
The molecule B2 registered a normalised SPOT signal, Boehringer light units (BLU); mean over the file's lines of this peptide of 80.9.
Same read-out and setting: with B3 the figure was 1110; with B4, 1020; with B5, 41.3.
Still for that read-out and setting: the figure for B6 is 44.1; for B7 it is 132.
Same read-out and setting: the figure for B8 is 57.3; for B9 it is 555.
The molecule B10 came in with a normalised SPOT signal, Boehringer light units (BLU); mean over the file's lines of this peptide of 3140.
Same read-out and setting: the figure for B11 is 30.9; for B12 it is 898.
Still for that read-out and setting: with B13 the figure was 37.8.
Same read-out and setting: the figure for B14 is 146.

A further test addresses Sho1 SH3 (SHO1_YEAST), P40073. In words: SPOT array.
With B1, the normalised SPOT signal, Boehringer light units (BLU); mean over the file's lines of this peptide was found to be 3820.
On the same count and under the same terms, with B2 the figure was 24500; with B3, 142; with B4, 155.
As to B5, the normalised SPOT signal, Boehringer light units (BLU); mean over the file's lines of this peptide is 30.7.
For B6, the normalised SPOT signal, Boehringer light units (BLU); mean over the file's lines of this peptide is 166.
Still for that read-out and setting: the figure for B7 is 231; for B8 it is 35; for B9 it is 149.
Same read-out and setting: the figure for B10 is 34.3; for B11 it is 59.6.
Still for that read-out and setting: with B12 the figure was 44.8.
B13: the normalised SPOT signal, Boehringer light units (BLU); mean over the file's lines of this peptide amounted to 15.9.
On the same count and under the same terms, with B14 the figure was 19.1.

For the next test, the target named is T3, Boi2 SH3 (BOI2_YEAST), P39969. In words: SPOT array.
In the case of B1, the normalised SPOT signal, Boehringer light units (BLU); mean over the file's lines of this peptide came out at 0.9.
B2 showed a normalised SPOT signal, Boehringer light units (BLU); mean over the file's lines of this peptide of 23.
Same read-out and setting: the figure for B3 is 31.6; for B4 it is 104; for B5 it is 31.4.
Still for that read-out and setting: with B6 the figure was 0; with B7, 133; with B8, 50.
In the case of B9, the normalised SPOT signal, Boehringer light units (BLU); mean over the file's lines of this peptide was 688.
Same read-out and setting: the figure for B10 is 74.3.
Still for that read-out and setting: the figure for B11 is 128; for B12 it is 50.2; for B13 it is 76.8.
Still for that read-out and setting: the figure for B14 is 50.6.

In the next test the target is T4, Rvs167 SH3 (RV167_YEAST), P39743. In words: SPOT array.
On to B1, for which the normalised SPOT signal, Boehringer light units (BLU); mean over the file's lines of this peptide is 32.2.
Consider B2, for which the normalised SPOT signal, Boehringer light units (BLU); mean over the file's lines of this peptide turned out to be 65.7.
The same measure, in the same setting: with B3 the figure was 137; with B4, 243.
Still for that read-out and setting: with B5 the figure was 30.8; with B6, 46.5; with B7, 145.
The same measure, in the same setting: with B8 the figure was 368; with B9, 1200.
Regarding B10, the normalised SPOT signal, Boehringer light units (BLU); mean over the file's lines of this peptide amounted to 196.
Still for that read-out and setting: the figure for B11 is 377; for B12 it is 153.
Same read-out and setting: the figure for B13 is 181; for B14 it is 251.

The target of the next test is T5, Yhr016c SH3 (YSC84_YEAST), P32793. In words: SPOT array.
With B1, the normalised SPOT signal, Boehringer light units (BLU); mean over the file's lines of this peptide was 40.3.
On the same count and under the same terms, with B2 the figure was 83.4; with B3, 40.5.
Same read-out and setting: the figure for B4 is 168; for B5 it is 77.5.
The molecule B6 yielded a normalised SPOT signal, Boehringer light units (BLU); mean over the file's lines of this peptide of 4.3.
Molecule B7 returned a normalised SPOT signal, Boehringer light units (BLU); mean over the file's lines of this peptide of 615.
Still for that read-out and setting: with B8 the figure was 128; with B9, 1050.
The same measure, in the same setting: the figure for B10 is 473; for B11 it is 262; for B12 it is 126.
As for B13, the normalised SPOT signal, Boehringer light units (BLU); mean over the file's lines of this peptide came out at 60.7.
Take B14: the normalised SPOT signal, Boehringer light units (BLU); mean over the file's lines of this peptide amounted to 242.

A further test concerns the target T6, Yfr024 SH3 (LSB3_YEAST), P43603. In words: SPOT array.
The molecule B1 gave a normalised SPOT signal, Boehringer light units (BLU); mean over the file's lines of this peptide of 402.
On the same count and under the same terms, the figure for B2 is 489; for B3 it is 394; for B4 it is 1750.
The molecule B5 registered a normalised SPOT signal, Boehringer light units (BLU); mean over the file's lines of this peptide of 475.
Same read-out and setting: the figure for B6 is 75.2; for B7 it is 938; for B8 it is 595.
The same measure, in the same setting: with B9 the figure was 2300.
Take B10: the normalised SPOT signal, Boehringer light units (BLU); mean over the file's lines of this peptide came out at 2100.
B11 returned a normalised SPOT signal, Boehringer light units (BLU); mean over the file's lines of this peptide of 1090.
Still for that read-out and setting: with B12 the figure was 716; with B13, 404; with B14, 733.
